Measurements: CN113150137A
Numbering of substitutions follows the chain as printed.

B1: 单克隆抗体7C10 (antibody, V domains shown)
VH: QVQLQQPGAELVRPGASVRLSCKASGYTFTNYWMNWVKQRPGQGLEWIGSINPSDGYTKYNQKFKDKATLTVDKSSSTAYLQLSSPTSEDSAVYYCTRKKVNYDYAMDYWGQGTSVTVSS
VL: DIVMSQSPSSLAVSVGEKVTMSCKSSQSLLYSSNQKNYLAWYQQKPGQSPKLLIYWASTRESGVPDRFTGSGSGTDFTLTISSVKAEDLAFYYCHQYYSYPYTFGGGTKLERK
B2: 单克隆抗体5B9 (antibody, V domains shown)
VH: EVQLVESGGGLVKPGGSLKLSCAASGFTFSSYAMSWVRQSPEKRLEWVADISSGGSYTYYPDTVTGRFTISRDNAKNTLYLEMSSLGSEDTAMYYCAREYGGGFDYWGQGTTLTVSS
VL: DIQMTQSPASLSASVGETVTITCRASGNIHNYLAWYQQKQGKSPQLLVYNAKTLADGVPSRFSGSGSGTQYSLKINSLQPEDFGSYYCQHFWSIPRTFGGGTKLEIK
B3: 单克隆抗体5G6 (antibody, V domains shown)
VH: B2 VH with S31N, S84T, G87R
VL: B2 VL with S85N

Molecular target: 重组NDM-1蛋白 (新德里金属β-内酰胺酶, 肺炎克雷伯菌) (肺炎克雷伯菌 (Klebsiella pneumoniae)) (UniProt C7C422)
Test: indirect ELISA, NDM-1 coated at 100 ng/well, purified antibody diluted 1:10000 to 1:2560000, positive if the ratio to the negative control is >2.1

Chain of UniProt C7C422 (C7C422 29-270 limits assumed): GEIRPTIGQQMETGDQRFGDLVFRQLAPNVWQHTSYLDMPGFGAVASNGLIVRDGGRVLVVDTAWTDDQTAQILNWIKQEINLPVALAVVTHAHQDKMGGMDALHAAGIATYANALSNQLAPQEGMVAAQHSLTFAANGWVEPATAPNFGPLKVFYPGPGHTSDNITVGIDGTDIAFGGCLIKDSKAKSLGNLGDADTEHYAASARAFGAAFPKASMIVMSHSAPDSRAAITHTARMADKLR

| Binder | 效价 (ELISA titer, highest positive dilution) (fold dilution) |
| --- | --- |
| B1 | 600000 |
| B2 | 1e+06 |
| B3 | 1e+06 |
